Assays:
[1] = biological target: SARS-CoV-2 spike trimer (aa 1-1208, furin site mutated, K986P/V987P) fused to human resistin (aa 23-108), FLAG-(His)6 (SARS-CoV-2 | human) (UniProt P0DTC2); experiment: SEC-MALS; SEC-UPLC in PBS + 0.02% Tween-20 on Acquity BEH450 column coupled to MALS detector and refractometer; data not shown
[2] = biological target: soluble trimeric SARS-CoV-2 spike protein ectodomain (residues 1-1211) with phage foldon trimerization motif, 6xHis tag and AviTag (SARS-CoV-2 | not stated) (UniProt P0DTC2); experiment: negative stain electron microscopy

Substance | stoichiometry N [1] | stoichiometry N [2]
SARS-CoV-2 spike trimer (aa 1-1208, furin site mutated, K986P/V987P) fused to human resistin (aa 23-108), FLAG-(His)6 (from UniProt P0DTC2;Q9HD89) | 3 | –
soluble trimeric SARS-CoV-2 spike protein ectodomain (residues 1-1211) with phage foldon trimerization motif, 6xHis tag and AviTag (from UniProt P0DTC2 14-1211) | – | 3

From PMC8050884
